Experimental findings from patent publication US20100028347A1 (Eli Lilly, published 2010) are described below.

The target of one test is T1, mouse VEGFR-2 Fc (mouse, UniProt P35918 20-762, limits assumed).
T1 construct: not shown: Fc part; not described
The test can be described thus: ELISA: antibody dilutions on plate coated with 1 µg/ml mouse VEGFR-2 Fc, HRP secondary, O.D. 450. How it is done:
To determine the specificity of an anti-VEGFR-1 monoclonal antibody to human VEGFR-I, purified antibodies 18F1 were tested in an ELISA-based assay. One μg/ml of recombinant human VEGFR-I Fc, mouse VEGFR-I Fc, mouse VEGFR-2 Fc, or human VEGFR-2 alkaline phosphatase was coated with PBS in a 96-well microtiter plates at 4° C. over night. After wash, the receptor coated plates were blocked with PBS containing 5% Dry Milk and 0.05% Tween 20. Serial dilutions of primary antibody 18F1 to human VEGFR-I, MF1 to mouse VEGFR-I, IC1 1 to human VEGFR-2, or DClOl to mouse VEGFR-2 were incubated in the receptor-coated plates for 30 minutes. After wash secondary anti-primary HRP conjugate antibodies was incubated in the plates for 30 minutes. Plates were washed and incubated with the substrate TMB (3,3′,5,5′-tetra-methylbenzidine) for color development. The absorbance at 450 nm was read as OD values for quantification of binding activity of antibodies. Data were analyzed using a GraphPad Prism Software.

Test [1] has as its target T2, native VEGFR-1 expressed on the cell surface (human, UniProt P17948 27-1338). The experiment in a line: cell-based or functional assay.
In test [2] the target is T3, soluble recombinant human VEGFR-1 alkaline phosphatase (human, UniProt P17948 27-758).
T3 construct: Made in house in stably transfected cells; also called rhuVEGFR-I AP; VEGFR-I AP; not shown: alkaline phosphatase fusion partner
T3 sequence (P17948 27-758): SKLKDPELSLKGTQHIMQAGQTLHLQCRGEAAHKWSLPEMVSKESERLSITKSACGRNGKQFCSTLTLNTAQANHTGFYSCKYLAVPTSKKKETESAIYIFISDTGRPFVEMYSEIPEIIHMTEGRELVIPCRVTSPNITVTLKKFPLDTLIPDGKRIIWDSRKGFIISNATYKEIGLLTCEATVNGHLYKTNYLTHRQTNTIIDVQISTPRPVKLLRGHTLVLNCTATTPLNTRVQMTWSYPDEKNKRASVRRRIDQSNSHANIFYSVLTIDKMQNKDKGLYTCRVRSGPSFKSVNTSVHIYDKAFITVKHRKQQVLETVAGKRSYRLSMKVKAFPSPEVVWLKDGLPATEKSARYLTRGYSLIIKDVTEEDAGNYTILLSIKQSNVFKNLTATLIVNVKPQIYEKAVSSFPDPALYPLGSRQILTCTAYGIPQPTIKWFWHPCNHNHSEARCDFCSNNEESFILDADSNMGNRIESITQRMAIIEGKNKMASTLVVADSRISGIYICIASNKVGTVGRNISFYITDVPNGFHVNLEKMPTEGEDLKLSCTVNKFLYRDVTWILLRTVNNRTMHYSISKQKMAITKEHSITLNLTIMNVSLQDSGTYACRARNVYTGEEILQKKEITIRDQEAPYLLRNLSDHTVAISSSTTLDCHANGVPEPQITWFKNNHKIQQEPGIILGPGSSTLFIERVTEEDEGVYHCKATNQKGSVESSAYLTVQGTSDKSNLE
The test can be described thus: ELISA, purified antibody on rhuVEGFR-1 AP coated plate (given as ED50). As to the method: (§1) Specifically, hybridoma supernatants or purified antibodies were diluted in PBS with 5% FBS and 0.05% Tween 20 (ELISA buffer) and incubated in rhuVEGFR-I AP or AP coated 96-well microtiter plates for 30 minutes. Plates were washed with the ELISA buffer and incubated with goat anti-mouse IgG-horseradish peroxidase (HRP) conjugate (BioSource International, Camarillo, Calif.) for 30 minutes. TMB (3,3′,5,5′-tetra-methylbenzidine) substrate (Kierkegaard and Perry Lab, Inc., Gaithersburg, Md.) was used for color development following the manufacturer's instruction. The absorbance at 450 nanometers (nm) was read for quantification of binding activity of antibodies. For identification of the hybridomas producing anti-VEGFR-I antibodies, hybridoma supernatants were preincubated with VEGFR-I AP for 1 hour. The mixtures were incubated with the ELISA buffer in VEGF or P1GF coated 96-well microtiter plates for 1 hour. PNPP (p-nitrophenyl phosphate) substrate for AP was used for color development following the manufacturer's instruction. The absorbance at 405 nm was read for quantification of VEGFR-I binding to VEGF or P1GF. Optical density (OD) values were read on a microtiter plate reader (Molecular Devices Corp., Sunnyvale, Calif.). ED50 and IC50 of the antibodies were analyzed using GraphPad Prism 3 software (GraphPad Software, Inc., San Diego, Calif.).
(ELISA stands for enzyme-linked immunosorbent assay.)

Test [3] deals with T4, recombinant extracellular domain of VEGFR-1 (UniProt P17948 27-758, limits assumed).
T4 construct: extracellular domain
T4 sequence (P17948 27-758 limits assumed): as the sequence (P17948 27-758) above
The experiment in a line: SPR, BIAcore 2000, VEGFR-1 extracellular domain immobilised at low density. How it is done: Affinities of anti-VEGFR-1 antibody clones 6F9, 13 G12, 15F1 1, 18F1 were determined by plasmon resonance technology using BIAcore 2000 (Pharmacia, Piscataway, N.J.) according to the procedures provided by the manufacturer. Kinetic analyses of the antibodies were performed by immobilization of recombinant extracellular domain of VEGFR-I onto a sensor surface at a low density. The (kₒₙ) and dissociation (kₒ_{^ff}) rates were determined using the BIAevaluation 2.1 software provided by the manufacturer.
For orientation: In SPR one partner is held on a chip, and binding of the other changes the refractive index at the surface.

The target of test [4] is T3, soluble recombinant human VEGFR-1 …. The experiment in a line: blocking ELISA: antibody preincubated with VEGFR-1 AP, binding to PlGF coated plate. How it is done: as §1
Test [5] shares this target. The test can be described thus: blocking ELISA: antibody preincubated with VEGFR-1 AP, binding to VEGF coated plate. How it is done:
as §1

Test [6] has the same target. The experiment in a line: ELISA: purified antibody on plate-coated rhuVEGFR-1 AP, O.D. 450. As to the method: as §1
In test [7] the target is T2, native VEGFR-1 expressed on the cell …. The experiment in a line: cell-based competition: cold VEGF at 200-fold molar excess over 125I-VEGF (2 ng/ml) on PAE-VEGFR-1 cells, gamma counting. How it is done: The binding of ¹²⁵1-VEGF to VEGFR-I on cell surface was performed using PAE-VEGFR-I expressing cells. […] Confluent cells were incubated in serum- and growth supplement-free Dulbecco's Modified Eagle Medium (DMEM)ZF-12 medium (Invitrogen, Carlsbad, Calif.) for 24 hours. Cells were rinsed once with ice-cold DMEMZF-12 medium containing 0.025 M HEPES and 1 mgZml bovine serum albumin (BSA). A serial dilution of anti-VEGFR-I antibody 18F1 or cold VEGF at the concentration of a 200-fold molar excess of labeled VEGF was added to each well in the plate and incubated at 4° C. for 1 hour. After wash, ¹²⁵I-VEGF was added at the concentration of 2 ngZml and was incubated at 4° C. for 2 hours on a platform shaker. The cells were washed three times with PBS containing 1 mgZml BSA and 0.25 mM CaCl₂, and were incubated for 5 minutes in the presence of 1% Triton X-100, 1 mgZml BSA, and 0.16% NaN₃ to remove bound VEGF. The soluble content of each well was counted in a gamma counter. The assays were performed in triplicate in at least three independent experiments and the data were analyzed using Prism GraphPad software 3.03.

T2 sequence (P17948 27-1338): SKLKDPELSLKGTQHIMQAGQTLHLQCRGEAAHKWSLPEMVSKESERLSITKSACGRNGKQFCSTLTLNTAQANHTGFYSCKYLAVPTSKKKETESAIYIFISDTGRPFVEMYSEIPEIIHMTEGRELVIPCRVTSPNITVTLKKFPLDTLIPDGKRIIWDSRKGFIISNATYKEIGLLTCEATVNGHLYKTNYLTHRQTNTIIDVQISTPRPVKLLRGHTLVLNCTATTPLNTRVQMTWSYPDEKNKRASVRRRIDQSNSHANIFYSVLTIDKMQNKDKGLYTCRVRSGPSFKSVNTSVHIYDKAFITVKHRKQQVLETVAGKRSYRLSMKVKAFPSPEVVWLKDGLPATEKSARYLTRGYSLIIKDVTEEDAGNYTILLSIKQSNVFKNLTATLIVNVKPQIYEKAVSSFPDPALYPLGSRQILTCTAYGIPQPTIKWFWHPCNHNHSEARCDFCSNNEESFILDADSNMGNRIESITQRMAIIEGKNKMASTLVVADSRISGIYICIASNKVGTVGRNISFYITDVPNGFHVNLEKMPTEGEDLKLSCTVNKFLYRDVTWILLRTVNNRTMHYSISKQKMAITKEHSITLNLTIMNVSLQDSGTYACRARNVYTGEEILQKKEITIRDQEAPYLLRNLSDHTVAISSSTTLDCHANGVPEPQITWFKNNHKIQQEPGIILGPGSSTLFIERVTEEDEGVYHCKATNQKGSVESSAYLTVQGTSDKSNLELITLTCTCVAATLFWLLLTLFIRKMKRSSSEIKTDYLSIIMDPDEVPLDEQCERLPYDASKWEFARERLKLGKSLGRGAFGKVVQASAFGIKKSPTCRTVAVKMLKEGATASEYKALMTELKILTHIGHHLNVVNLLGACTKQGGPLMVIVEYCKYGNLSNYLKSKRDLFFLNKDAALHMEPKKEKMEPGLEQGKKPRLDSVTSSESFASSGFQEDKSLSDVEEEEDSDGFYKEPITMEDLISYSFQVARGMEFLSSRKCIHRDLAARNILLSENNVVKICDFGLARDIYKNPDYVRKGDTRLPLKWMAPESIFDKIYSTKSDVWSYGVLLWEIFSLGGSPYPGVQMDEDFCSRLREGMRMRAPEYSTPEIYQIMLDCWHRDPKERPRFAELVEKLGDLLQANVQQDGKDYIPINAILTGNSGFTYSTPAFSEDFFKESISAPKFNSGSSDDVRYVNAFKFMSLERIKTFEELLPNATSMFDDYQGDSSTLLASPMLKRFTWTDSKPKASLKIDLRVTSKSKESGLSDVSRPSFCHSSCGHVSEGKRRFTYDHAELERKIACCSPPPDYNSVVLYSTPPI
T1 sequence (P35918 20-762 limits assumed): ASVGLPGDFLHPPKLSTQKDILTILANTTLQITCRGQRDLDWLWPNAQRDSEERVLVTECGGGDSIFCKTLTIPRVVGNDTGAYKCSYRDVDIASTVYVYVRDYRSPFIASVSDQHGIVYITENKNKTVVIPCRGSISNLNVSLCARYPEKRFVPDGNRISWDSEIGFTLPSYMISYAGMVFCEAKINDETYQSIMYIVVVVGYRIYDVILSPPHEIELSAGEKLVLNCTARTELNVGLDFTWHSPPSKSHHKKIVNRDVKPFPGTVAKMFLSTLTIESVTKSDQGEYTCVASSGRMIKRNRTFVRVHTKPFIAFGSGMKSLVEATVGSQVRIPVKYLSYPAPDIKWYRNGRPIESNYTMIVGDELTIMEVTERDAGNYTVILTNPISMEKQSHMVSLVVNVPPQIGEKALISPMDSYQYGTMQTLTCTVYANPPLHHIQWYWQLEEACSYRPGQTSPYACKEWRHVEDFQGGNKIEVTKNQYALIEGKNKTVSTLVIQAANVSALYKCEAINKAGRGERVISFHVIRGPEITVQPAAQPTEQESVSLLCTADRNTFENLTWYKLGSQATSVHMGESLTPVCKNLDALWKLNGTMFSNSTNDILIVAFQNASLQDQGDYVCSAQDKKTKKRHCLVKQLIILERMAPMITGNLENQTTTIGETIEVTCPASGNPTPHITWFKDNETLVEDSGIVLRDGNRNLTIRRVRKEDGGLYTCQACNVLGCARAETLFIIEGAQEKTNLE

B1: DC101 (antibody, V domains shown)
VH: EVQLVETGGGLVQPGNSLKLSCATSGFIFSTTWMNWIRQTPGKRLEWLAQIEDKSNNYFISYSESVKGRFTISRDDSKSSVYLQMNNLKEEDTAIYYCSWKYRSNYYFDYWGQGVMVTVSS
VL: DIVLTQSPALAVSLEQRATISCKTSQNVDYYGISYLHWYQQKPGQQPKLLIYEGSNLASGIPARFSGSGSGTDFTLTIDPVEADDIVTYYCQQSKDYPYTFGAGTKLELK
One may read the EC50 (read off the curve) as the concentration that produces a half-maximal response. As for B1, in the test with mouse VEGFR-2 Fc, the “EC50 (read off the curve)” value is ~8 ng/mL.

B2: anti-VEGFR-1 antibody clone 13G12 (antibody, human IgG1, V domains shown)
VH: QVQLVESGGGVVQPGRSLRLSCAASGFTFSSYGMHWVRQAPGKGLEWVAVIWYDGSNKYYADSVKGRFTISRDNSKNTLYLQMNSLRAEDTAVYYCARDHYGSGAHYYYYYGMDVWGQGTTVTVSS
VL: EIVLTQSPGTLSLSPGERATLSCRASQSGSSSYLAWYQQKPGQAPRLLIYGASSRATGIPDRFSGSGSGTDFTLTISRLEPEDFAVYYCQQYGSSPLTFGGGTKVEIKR
notes: Fully human antibody (gamma heavy chain, kappa light chain) from hybridomas of KM transgenic mice, purified; The light chain entry runs a few residues into the kappa constant region
A word on the EC50: it is the concentration giving half of the maximal effect. As usually defined, the Kd is a measure of binding affinity in units of concentration. As a reminder, the kon is the rate constant with which the complex forms. The term IC50 denotes the midpoint of a concentration-inhibition curve. As for B2, the “Inhibition of PlGF-induced DU4475 cell growth in vitro (IC50)” value (“Inhibition” below) in test [1] was 66000 pM. For the same molecule, in test [2], the EC50 was found to be 300 pM. In test [3], the Kd is 121 pM and the kon is 950000 M⁻¹ s⁻¹. Further, the half-inhibitory concentration (IC50) in test [4] is 820 pM. Further, the IC50 in test [5] was 700 pM.

B3: anti-VEGFR-1 antibody clone 6F9 (antibody, human IgG1, V domains shown)
VH: QVQLVESGGGVVQPGRSLRLSCAASGFTFSSYGMHWVRQAPGKGLEWVAVIWYDGSNKYYADSVKGRFTISRDNSKNTVYLQMNSLRAEDTAVYHCTRDHFGSGAHYYYYYGMDVWGQGTTVTVSS
VL: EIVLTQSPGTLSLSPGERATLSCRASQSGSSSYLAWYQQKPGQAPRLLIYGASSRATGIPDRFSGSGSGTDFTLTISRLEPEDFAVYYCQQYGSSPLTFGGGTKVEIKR
notes: Fully human antibody (gamma heavy chain, kappa light chain) from hybridomas of KM transgenic mice, purified
As to B3, in test [1], the “Inhibition” value was found to be 43000 pM. The EC50 in test [2] was 100 pM; in test [6], 114 pM. For the same molecule, in test [3], the dissociation constant (Kd) worked out at 69 pM. The kon in test [3] is 1.01e+06 M⁻¹ s⁻¹. Besides, the figures for the half-maximal inhibitory concentration (IC50) in test [4] and in test [5] were 860 pM and 820 pM, respectively.

B4: anti-VEGFR-1 antibody clone 15F11 (antibody, V domains shown)
VH: QVQLVESGGGVVQPGRSLRLSCAASGFTFSSYGMHWVRQAPGKGLEWVAVIWFDGSNKYYADSVKGRFTISRDNSKNTLYLQMNSLRAEDTAVYYCARDHYGSGAHSYYYYGLDVWGQGTSVTVSS
VL: not shown
notes: Fully human antibody (gamma heavy chain, kappa light chain) from hybridomas of KM transgenic mice, purified; The light chain entry runs a few residues into the kappa constant region; also called FI1
Turning to B4, in test [1], the “Inhibition” value came to 44000 pM. Further, the concentration for a half-maximal effect (EC50) in test [2] turned out to be 300 pM. Besides, in test [3], the Kd came to 70 pM and the kon was found to be 1.02e+06 M⁻¹ s⁻¹. The IC50 in test [4] amounted to 490 pM. Also, in test [5], the IC50 is 730 pM.

B5: human VEGF165 (ligand, UniProt P15692-4 27-191, looked up)
chain: APMAEGGGQNHHEVVKFMDVYQRSYCHPIETLVDIFQEYPDEIEYIFKPSCVPLMRCGGCCNDEGLECVPTEESNITMQIMRIKPHQGQHIGEMSFLQHNKCECRPKKDRARQENPCGPCSERRKHLFVQDPQTCKCSCKNTDSRCKARQLELNERTCRCDKPRR
On to B5, for which, in test [7], the binding result is on record as “binds”.
